The values that follow come from patent US20250340613A1 (JOINT STOCK COMPANY BIOCAD, published 2025).

Test [1] deals with T1, biotinylated peptide [NH2]…JQS[CH2CH2]biotin comprising a fragment of the human CD20 sequence (human, [NH2] at the N-terminus; [CH2CH2]biotin at the C-terminus; the letter J at position 20 is printed so and is not a standard residue code).
T1 construct: also called CD20 peptide
Kind of test: BLI Octet RED 384; biotinylated peptide on SAX sensor, antibody in solution; 1:1 global fit. Here is the method:
In the case of the biotinylated CD20 peptide, the peptide at a concentration of 5 μg/ml was immobilized on the surface of SAX sensors (High Precision Streptavidin (SAX) biosensors, ForteBio) for 120 seconds. The baseline was recorded in a 1×KB solution for 120 seconds. The sensors containing the loaded peptide were immersed into wells containing the antibody solution (analyte) in 1×KB for 15 seconds. Measurements were carried out for solutions with analyte (antibodies in the case of CD20 peptide) at concentrations of 150 μg/ml, 75 μg/ml, 37.5 μg/ml. Complex dissociation was recorded in 1×KB for 120 seconds.
(§1) All measurements were carried out at 30° C., orbital mixing speed was 1,000 revolutions per minute.
(§2) To obtain numerical values of kinetic constants (kₒₙ is the on/association rate constant, kdis is the dissociation rate constant, KD is the equilibrium dissociation constant or affinity constant), the resulting sensograms were processed according to the 1:1 interaction model using Global Fit (selection of one set of kon, kdis, KD constants to analyze several sensograms of different concentrations) of the ForteBio Octet Data Analysis 9.0 software.
On the technique in general: Biolayer interferometry detects binding as a change in optical thickness at a sensor tip.

For test [2], the target named is T2, extracellular domain of the human CSF1R protein (hCSF1R_His) (Homo sapiens, UniProt P07333 20-512).
T2 construct: range 20-512; Molecular weight 57.4 kDa; made in CHO cells; also called hCSF1_His; not shown: C-terminal His and FLAG tags
Kind of test: BLI Octet RED 384; antibody on ProA sensor, antigen 30 ug/ml.

Test [3] deals with T2, extracellular domain of the human CSF1R …. The test is described as follows: BLI Octet RED 384; antibody on ProA sensor, antigen in solution; 1:1 global fit. Here is the method:
The experiments were carried out using a kinetic buffer solution (hereinafter referred to as 1×KB) having the following formulation: 4.3 mM Na₂HPO₄; 136.9 mM NaCl, 1.5 mM KH₂PO₄; 2.7 mM KCl; the volume fraction of the added Tween 20 was 0.1%; the mass fraction of the added BSA (bovine serum albumin) was 0.1%; pH 7.4. Before the measurement, the ProA sensors were regenerated with a solution of 50 mM glycine and hydrochloric acid, pH 1.8 (5 seconds in the regenerating solution, 5 seconds in 1×KB, three repetitions). In the case of the hPD1ex-H6F and hCSF1R_His antigens, the Protein A (ProA) biosensors (ForteBio) were immersed in a solution with antibodies at a concentration of 10 μg/ml for 60 seconds to immobilize same. The baseline was recorded in 1×KB for 60 seconds. The sensors loaded with the antibody were then immersed into wells containing a solution of the target antigen (analyte) in a kinetic buffer for 90 seconds. Measurements were performed for solutions with hPDlex-H6F analyte at concentrations of 2.50 μg/ml (121.4 nM), 1.25 μg/ml (60.7 nM), 0.625 μg/ml (30.35 nM). […] Then we detected complex dissociation in 1×KB for 210 s for hPDlex-H6F, 300 s for hCSF1R_His.
as §1, §2

Test [4] concerns the target T3, hIL4R-His, Interleukin-4 receptor subunit alpha (Homo sapiens) aa 27-227 (Homo sapiens, UniProt P24394 27-227).
T3 construct: range 27-227; not shown: His tag as the name implies
T3 sequence (looked up): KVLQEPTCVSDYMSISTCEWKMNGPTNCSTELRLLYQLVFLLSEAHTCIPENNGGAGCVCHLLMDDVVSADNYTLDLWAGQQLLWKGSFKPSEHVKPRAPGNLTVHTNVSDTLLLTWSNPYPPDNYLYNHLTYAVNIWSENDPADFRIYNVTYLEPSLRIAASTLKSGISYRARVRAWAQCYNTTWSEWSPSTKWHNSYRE
Kind of test: BLI Octet RED 384; antibody on ProA sensor, antigen 30 ug/ml.

T2 sequence (P07333 20-512 limits assumed): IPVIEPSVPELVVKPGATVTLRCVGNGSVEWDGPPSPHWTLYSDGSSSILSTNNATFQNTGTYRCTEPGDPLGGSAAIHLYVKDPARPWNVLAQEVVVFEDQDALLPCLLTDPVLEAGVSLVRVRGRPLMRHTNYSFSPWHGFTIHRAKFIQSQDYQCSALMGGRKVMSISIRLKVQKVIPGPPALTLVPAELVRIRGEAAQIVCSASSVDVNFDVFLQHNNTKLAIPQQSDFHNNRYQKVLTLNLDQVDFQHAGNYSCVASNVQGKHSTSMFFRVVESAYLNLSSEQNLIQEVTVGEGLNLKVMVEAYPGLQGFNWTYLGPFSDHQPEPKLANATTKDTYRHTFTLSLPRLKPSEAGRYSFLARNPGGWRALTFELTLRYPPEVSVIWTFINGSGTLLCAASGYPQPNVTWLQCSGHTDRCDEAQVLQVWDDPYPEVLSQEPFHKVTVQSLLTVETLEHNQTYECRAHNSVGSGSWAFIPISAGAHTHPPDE
T1 sequence (peptide, as listed by the source): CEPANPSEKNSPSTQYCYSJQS

B1: 02-005, bivalent bispecific chimeric antibody that specifically binds to PD1 and CD20 (bispecific antibody, human IgG1, kappa, L234A L235A)
heavy 1: EVQLVESGGGLVQPGGSLRLSCAASGYTFTSYNMHWVRQAPGKGLEWVGAIYPGNGDTSYNQKFKGRFTISVDKSKNTLYLQMNSLRAEDTAVYYCARVVYYSNSYWYFDVWGQGTLVTVSSASTKGPSVFPLAPSSKSTSGGTAALGCLVKDYFPEPVTVSWNSGALTSGVHTFPAVLQSSGLYSLSSVVTVPSSSLGTQTYICNVNHKPSNTKVDKRVEPKSCDKTHTCPPCPAPEAAGGPSVFLFPPKPKDTLYITREPEVTCVVVDVSHEDPEVKFNWYVDGVEVHNAKTKPREEQYNSTYRVVSVLTVLHQDWLNGKEYKCKVSNKALPAPIEKTISKAKGQPREPQVCTLPPSRDELTKNQVSLSCAVKGFYPSDIAVEWESNGQPENNYKTTPPVLDSDGSFFLVSKLTVDKSRWQQGNVFSCSVMHEALHNHYTQKSLSLSPGK
light 1: DIQMTQSPSSLSASVGDRVTITCRASSSVSYMHWYQQKPGKAPKPLIYAPSNLASGVPSRFSGSGSGTDFTLTISSLQPEDFATYYCQQWSFNPPTFGQGTKVEIKRTVAAPSVFIFPPSDEQLKSGTASVVCLLNNFYPREAKVQWKVDNALQSGNSQESVTEQDSKDSTYSLSSTLTLSKADYEKHKVYACEVTHQGLSSPVTKSFNRGEC
heavy 2: not shown
light 2: QPVLTQPLSVSVALGQTARITCGGNNIGSKNVHWYQQKPGQAPVLVIYRDSNRPSGIPERFSGSNSGNTATLTISRAQAGDEADYYCQVWDSSTAVFGTGTKLTVLQQRQVKPEAWLSSGPSPGPGRLQLVCHVSGFYPKPVWVMWMRGEQEQQGTQLGDILPNANWTWYLRATLDVADGEAAGLSCRVKHSSLEGQDIILYWRGSC
notes: Produced in CHO cells
Usually Kd stands for the free concentration of one partner at which half of the binding sites on the other are occupied at equilibrium, for simple one-to-one binding. Higher therefore signals weaker binding. In general, koff refers to the first-order rate constant of dissociation. A higher koff goes with fast dissociation. What is called kon is the second-order rate constant of association. The low end stands for slower complex formation, the high end for faster complex formation. In test [1], B1 registered a Kd of 1120 nM, a koff of 0.342 s⁻¹ and a kon of 305000 M⁻¹ s⁻¹. Besides, in test [2], the binding result was “no binding (tested: 522.5 nM)”.

B2: 02-008, bivalent bispecific chimeric antibody that specifically binds to CD20 and CSF1R (bispecific antibody, human IgG1, kappa, L234A L235A)
heavy 1: B1 heavy 1
light 1: B1 light 1
heavy 2: not shown
light 2: QAGLTQPPSVSVAPGQTARITCGGNNIGSKSVHWYQQKPGQAPVLVVYGDSDRPSGIPERFSGSNSGNTATLTISRVEAGDEADYYCQVWDISSDHVVFGGGTQLTVLQRQVKPEAWLSSGPSPGPGRLQLVCHVSGFYPKPVWVMWMRGEQEQQGTQLGDILPNANWTWYLRATLDVADGEAAGLSCRVKHSSLEGQDIILYWRGSC
notes: Produced in CHO cells
Regarding B2, in test [3], binding was put at a Kd of 0.549 nM, the off-rate constant (koff) amounted to 0.000236 s⁻¹ and the kon is 429000 M⁻¹ s⁻¹. In test [1], this molecule returned a Kd of 892 nM, an off-rate (koff) of 0.329 s⁻¹ and a kon of 369000 M⁻¹ s⁻¹.

B3: 02-007, bivalent bispecific chimeric antibody that specifically binds to PD1 and CSF1R (bispecific antibody, human IgG1, kappa, L234A L235A)
heavy 1: QVQLVESGGGLVRPGGSLRLSCAASEFTFDDYAMSWVRQAPGKGLEWVSAISWNGGSTNYADSVKGRFTISRDNAKNSLYLQMNSLRAEDTALYYCASTVEVAHRRLYKYLEVWGQGTLVTVSSASTKGPSVFPLAPSSKSTSGGTAALGCLVKDYFPEPVTVSWNSGALTSGVHTFPAVLQSSGLYSLSSVVTVPSSSLGTQTYICNVNHKPSNTKVDKRVEPKSCDKTHTCPPCPAPEAAGGPSVFLFPPKPKDTLYITREPEVTCVVVDVSHEDPEVKFNWYVDGVEVHNAKTKPREEQYNSTYRVVSVLTVLHQDWLNGKEYKCKVSNKALPAPIEKTISKAKGQPREPQVCTLPPSRDELTKNQVSLSCAVKGFYPSDIAVEWESNGQPENNYKTTPPVLDSDGSFFLVSKLTVDKSRWQQGNVFSCSVMHEALHNHYTQKSLSLSPGK
light 1: QAGLTQPPSVSVAPGQTARITCGGNNIGSKSVHWYQQKPGQAPVLVVYGDSDRPSGIPERFSGSNSGNTATLTISRVEAGDEADYYCQVWDISSDHVVFGGGTQLTVLRTVAAPSVFIFPPSDEQLKSGTASVVCLLNNFYPREAKVQWKVDNALQSGNSQESVTEQDSKDSTYSLSSTLTLSKADYEKHKVYACEVTHQGLSSPVTKSFNRGEC
heavy 2: not shown
light 2: B1 light 2
notes: Produced in CHO cells
In test [3], B3 returned a Kd of 0.831 nM, a koff of 0.000314 s⁻¹ and a kon of 378000 M⁻¹ s⁻¹. For the same molecule, the binding result in test [4] is given as “no binding (tested: 1154 nM)”.

B4: 02-009, bivalent bispecific chimeric antibody that specifically binds to CD20 and CSF1R (bispecific antibody, human IgG1, kappa, L234A L235A)
heavy 1: B3 heavy 1
light 1: B3 light 1
heavy 2: not shown
light 2: DIQMTQSPSSLSASVGDRVTITCRASSSVSYMHWYQQKPGKAPKPLIYAPSNLASGVPSRFSGSGSGTDFTLTISSLQPEDFATYYCQQWSFNPPTFGQGTKVEIKQRQVKPEAWLSSGPSPGPGRLQLVCHVSGFYPKPVWVMWMRGEQEQQGTQLGDILPNANWTWYLRATLDVADGEAAGLSCRVKHSSLEGQDIILYWRGSC
notes: Produced in CHO cells
Consider B4, for which, in test [3], the Kd amounted to 0.42 nM, the koff is 0.00021 s⁻¹ and the kon came out at 500000 M⁻¹ s⁻¹. Also, in test [1], binding was characterised by a dissociation constant (Kd) of 820 nM, the koff was determined as 0.177 s⁻¹ and the kon came to 216000 M⁻¹ s⁻¹.

B5: 02-006, bivalent bispecific chimeric antibody that specifically binds to PD1 and CSF1R (bispecific antibody, human IgG1, kappa, L234A L235A)
heavy 1: QVQLVQSGGGLVQPGGSLRLSCAASGFTFSSYWMYWVRQVPGKGLEWVSAIDTGGGRTYYADSVKGRFAISRVNAKNTMYLQMNSLRAEDTAVYYCARDEGGGTGWGVLKDWPYGLDAWGQGTLVTVSSASTKGPSVFPLAPSSKSTSGGTAALGCLVKDYFPEPVTVSWNSGALTSGVHTFPAVLQSSGLYSLSSVVTVPSSSLGTQTYICNVNHKPSNTKVDKRVEPKSCDKTHTCPPCPAPEAAGGPSVFLFPPKPKDTLYITREPEVTCVVVDVSHEDPEVKFNWYVDGVEVHNAKTKPREEQYNSTYRVVSVLTVLHQDWLNGKEYKCKVSNKALPAPIEKTISKAKGQPREPQVCTLPPSRDELTKNQVSLSCAVKGFYPSDIAVEWESNGQPENNYKTTPPVLDSDGSFFLVSKLTVDKSRWQQGNVFSCSVMHEALHNHYTQKSLSLSPGK
light 1: QPVLTQPLSVSVALGQTARITCGGNNIGSKNVHWYQQKPGQAPVLVIYRDSNRPSGIPERFSGSNSGNTATLTISRAQAGDEADYYCQVWDSSTAVFGTGTKLTVLQRTVAAPSVFIFPPSDEQLKSGTASVVCLLNNFYPREAKVQWKVDNALQSGNSQESVTEQDSKDSTYSLSSTLTLSKADYEKHKVYACEVTHQGLSSPVTKSFNRGEC
heavy 2: not shown
light 2: B2 light 2
notes: Produced in CHO cells
In test [3], B5 yielded a Kd of 0.797 nM, a koff of 0.000286 s⁻¹ and a kon of 359000 M⁻¹ s⁻¹.
